Tests used:
[1] = system: PAR polymer; assay: Competition binding of unlabeled PAR polymer against [32P]-labeled PAR polymer
Description: The affinity of Iduna and Iduna-YRAA for PAR binding was determined by a competition assay with increasing concentrations of unlabeled PAR polymer against 2.5 nM [^32P]-labeled PAR polymer (mean size of 40 ADP-ribose units) (FIG. 29). […] The PAR polymer synthesized by in vitro automodification of PARP-1 has a mean length of 40 ADP-ribose residues and accordingly the concentration of PAR is given as a function of polymer molecules with a mean size of 40 ADP-ribose units. These concentrations of PAR polymers are within the range of polymer concentrations found in intact cells during NMDA excitotoxicity and N-methyl-N-nitro-N-nitrosoguanidine (MNNG) toxicity. PAR polymer fails to bind to Iduna-YRAA (FIG. 29). […] The observed Kd is 10 times less than the PAR polymer concentration found after NMDA-induced excitotoxicity in cortical neurons.
Nitrocellulose PAR-binding Assay: Synthetic peptides or purified proteins were diluted in TBS-T buffer (1 μg/μl) and loaded onto a nitrocellulose membrane (0.05 μm) using a dot blot manifold system (Life Technologies). The membranes were washed once with TBS-T buffer, removed from the manifold and air dried. The membranes were then incubated in 10 ml of TBS-T buffer containing an indicated concentration of both [^32P]-labeled automodified PARP-1 and [^32P]-labeled PAR polymer for 3 h at room temperature with constant shaking. The membranes were washed with TBS-T buffer at 4° C. until no radioactivity could be detected in the waste. Finally, the membrane was air dried and subjected to autoradiography on Bio-Max MR (Kodak) films or analyzed by Cerenkov counting using an Instant Imager system (Perkin Elmer).

[2] = biological target: T1, PARP-1 (Homo sapiens, UniProt P09874); assay: Chemiluminescent PARP assay (biotinylated PAR onto histone); format: biochemical; conditions: incorporation of biotinylated PAR onto histone proteins
T1 construct: purchased Trevigen
Description: Because PARP-1 activation plays a prominent role in NMDA excitotoxicity we tested whether PARP-1 activity is directly affected by Iduna. PARP-1 activity was assessed by incorporation of biotinylated PAR onto histone proteins.
Chemiluminescent PARP assay for poly(ADP-ribosyl)ation of Histone H1: Activity of PARP-1 was determined by Trevigen Universal chemiluminescent PARP assay kit (Trevigen, Gaithersburg, Md., USA) in the presence of Iduna or the PARP-1 inhibitor 3-aminobenzamide (3-AB). According to manufacturer's instructions, the incorporation of biotinylated NAD+ (Trevigen) into the poly(ADP-ribose) polymer primed at solid phase immobilized histone H1 (Trevigen) was detected by the chemiluminescent assay, either in the presence or absence of recombinant Iduna. Reactions were performed with 34 μM total biotinylated NAD+ for 60 min at 25° C. in triplicates. Chemiluminescence was measured using a fluorescence multi-well plate reader (SOSTmax, Sunnyvale, Calif.) with an excitation at 544 nm excitation/590 nm emission. In the parallel wells, PARP1 activity was measured after the 3-aminobenzamide treatment at the same concentration of biotinylated NAD+ (34 μM).

[3] = system: AIF; assay: NMDA-induced AIF translocation in cortical neurons; format: cell-based, mouse; conditions: excitotoxic NMDA
Excerpt: Parthanatos involves the translocation of apoptosis inducing factor (AIF) from the mitochondria to the nucleus following NMDA excitotoxicity. AIF translocation following excitotoxic NMDA treatment was monitored by immunohistochemistry and confocal microscopy (FIG. 50) and by immunoblot analysis of nuclear and mitochondrial subcellular fractions (FIG. 51).

T1 sequence (P09874 whole entry): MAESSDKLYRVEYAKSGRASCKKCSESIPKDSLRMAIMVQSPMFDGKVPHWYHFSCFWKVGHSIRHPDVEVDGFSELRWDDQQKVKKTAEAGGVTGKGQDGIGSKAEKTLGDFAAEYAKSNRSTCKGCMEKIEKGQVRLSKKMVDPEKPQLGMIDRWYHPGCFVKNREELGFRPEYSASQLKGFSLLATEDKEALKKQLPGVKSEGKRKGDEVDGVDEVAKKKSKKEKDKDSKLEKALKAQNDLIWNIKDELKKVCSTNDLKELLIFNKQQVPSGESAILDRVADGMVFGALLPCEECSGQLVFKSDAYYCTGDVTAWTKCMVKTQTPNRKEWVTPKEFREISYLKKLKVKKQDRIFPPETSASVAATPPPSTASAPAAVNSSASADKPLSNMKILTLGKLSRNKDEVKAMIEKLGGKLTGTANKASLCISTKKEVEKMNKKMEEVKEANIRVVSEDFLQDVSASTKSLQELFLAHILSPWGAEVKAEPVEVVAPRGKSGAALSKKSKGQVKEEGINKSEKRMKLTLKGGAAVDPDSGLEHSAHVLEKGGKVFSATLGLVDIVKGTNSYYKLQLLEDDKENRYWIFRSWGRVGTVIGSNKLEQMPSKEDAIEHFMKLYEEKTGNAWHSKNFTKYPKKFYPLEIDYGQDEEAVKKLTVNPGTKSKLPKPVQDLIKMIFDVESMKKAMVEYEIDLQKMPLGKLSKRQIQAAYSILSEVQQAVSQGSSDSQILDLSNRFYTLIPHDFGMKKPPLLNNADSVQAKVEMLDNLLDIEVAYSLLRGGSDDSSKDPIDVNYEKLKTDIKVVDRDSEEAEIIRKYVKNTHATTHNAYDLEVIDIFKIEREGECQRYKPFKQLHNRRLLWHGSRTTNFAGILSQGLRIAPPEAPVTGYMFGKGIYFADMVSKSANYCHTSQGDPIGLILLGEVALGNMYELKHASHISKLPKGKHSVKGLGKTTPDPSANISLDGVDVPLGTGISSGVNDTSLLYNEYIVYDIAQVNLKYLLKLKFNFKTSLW

B1: Iduna: novel NMDA-induced cell survival protein, PAR-dependent E3 ligase; 359 amino acids (protein)
chain: MEMAGCGEIDHSINMLPTNKKANESCSNTAPSLTVPECAICLQTCVHPVSLPCKHVFCYLCVKGASWLGKRCALCRQEIPEDFLDKPTLLSPEELKAASRGNGEYAWYYEGRNGWWQYDERTSRELEDAFSKGKKNTEMLIAGFLYVADLENMVQYRRNEHGRRRKIKRDIIDIPKKGVAGLRLDCDTNTVNLARESSADGADSGSAQTGASVQLAVPSSTRPLTSVDGQLTSPVTPSPDAGISLEDSFAHLQLSGDSIAERSHRGEGEEDHESPSSGRVPDTSVEETESDASSDSEDAPVVVAQHSLTQQRPLVPNGNQTVADQSDRSGTDRSVAGGGTMSVNVRSRRPDGQCTVIEV
[1]; competitive binding curve
  maximum binding capacity (Bmax): 3.04 ± 0.16 µmol
[1]; homologous competitive binding curve, Cheng-Prusoff equation, read-out: dissociation constant (Kd)
  Kd: 12 nM
[1]; unlabeled PAR polymer against 2.5 nM [32P]-labeled PAR polymer, mean size 40 ADP-ribose units, read-out: EC50 of wild type Iduna for PAR polymer
  EC50: 14.5 ± 0.13 nM
[2]
  PARP-1 activity: has no effect
[3]
  AIF translocation to the nucleus: reduces the translocation of AIF
